This experiment concerns the target envelope glycoprotein derived from T-tropic HIV-1 (gp120, gp41) (HIV-1 (T-tropic)). The experiment in a line: cell-based or functional assay.

“His-tagged actinohivin monomer fusion protein (from UniProt Q9KWN0 47-160)” yielded a concentration that inhibit 50% of syncytium formation (IC50) of 0.58. Under “His-tagged actinohivin dimer fusion protein (from UniProt Q9KWN0 47-160)” stands 0.235.

For the origin of these results see patent publication US20080254507A1.
